Results as given in the nanobody polyreactivity screen of Harvey et al. (2022).

Assay: yeast display, Sf9 membrane polyspecificity reagent, FACS + sequencing; frameworks hold sequencing errors
Outline: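 Nanobodies from a synthetic yeast display library (Saccharomyces cerevisiae BJ5465), induced 36–48 hours with galactose, were stained 1 hour at 4 °C with 10% biotinylated, detergent-solubilized Sf9 membrane reagent, enriched on streptavidin microbeads, then FACS-sorted. Anti-HA (expression) and streptavidin (reagent binding) fluorescence set low and high (top ~1%) gates. Polyreactivity labels come from the gate of origin. Genes were colony-PCR amplified, MiSeq 2 × 250 sequenced and filtered by CDR length.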

Sequence: QVQLVESGGGLVQAGGSLRLSCAASGSTVINYAMGWYRHAPGKERELVATLTSDGRTYYADSVKGRCTISRDNAKNTVYLQMISLKPEDTAVYSCAKSYGGVTEYDYWGQGTQVTVSS
- polyreactivity (PSR sort gate): low polyreactivity

Sequence: QAQLKESGGSLVQAGGGLRLSCAASGYNSVGSVMGWYRQAPSKERELVASIDQGANTNYADSVKGRFTISRDNAKNNVYLQMNSLKPEDTAVYYCATETTYFLNYWGQGTQVTVSS
- polyreactivity (PSR sort gate): low polyreactivity

Sequence: QVQLVESGGGLVQAGGSLRLSCAASGSIIRGNAMGWYRQAPGKERELVAAISGSGGSTYYADSVKGRFTISRDNAKNTVYLQMNSLKPEDTAVYYCAARYVTSIYAYYYWGQGTQVTVSS
- polyreactivity (PSR sort gate): high polyreactivity

Sequence: QVQLVESGGGLVQAGGSLRLSCAASGFTFGSYVMGWYRQAPGKERELVADISIRGGSTYYADSVKGRFTISRDNAKNTVYLQMHSLKPEDTAVYDCNADPAFYYWEGIVGGADYDYWGQGTQVTVSS
- polyreactivity (PSR sort gate): low polyreactivity

Sequence: QVQLVESGGGLVQAGGSLLLSCAASGLTFTDNAMGWSRQAPGKERELVAAISQSGGRTFYADSVKGRFTISRDNAKNTVYLQINSLKPEDPAVYYCNSRRGSVAKYGYLGQGTQVTVSS
- polyreactivity (PSR sort gate): high polyreactivity

Sequence: QVHLVESGGGLVQAGGSLRLSCAASGFTLRHNTIGGYRQSPGKERELVAAISIGGRTYYADSVKARFTISRDNAKNTGYLQMNSLKPEDTAVYYCGKLDRGQSPRYDFWGQGTQVSVSS
- polyreactivity (PSR sort gate): high polyreactivity

Sequence: QVQLVESGGGLVQAGGSLRLSCAASGFIFVDYAMGWYRQAPGKERELVAAISSSGSTTYADSVKGRFTISRDNAKNIVYLQMNSLKPEDTAVYYCAAGLPRVLKDATFDYWGQGTQVTVSS
- polyreactivity (PSR sort gate): low polyreactivity

Sequence: QVQLVESGGGLVQAGGSLRLSCADSGFIFSLYAMGWYRQAPGKERELVAAISKRGGSTNYADSVKGRFTISRDYAKNTVYLQMNSLKPEDTAVYYCAKARPGFLYDHWVQGTQVTVSS
- polyreactivity (PSR sort gate): high polyreactivity

Sequence: QVQLVESGGGLVQAGGSLRLSCAASGSICERYAMGWYRQAPGKERELVAAISWRGTRTFYADSVKGRFTISRDNAKNTVYLQMNSLKPEDTAVYYCAADSRPPKYDYWGQGTQVTVSS
- polyreactivity (PSR sort gate): high polyreactivity

Sequence: QVQLVESGGGLVQAGGSLRLSCAASRITFIYYAMGSYRQAPGKERELVAAINRSGGSTYYADSVKGRFTISRDIAKNTVYLQMNSLKPEDTAVYYCNADRSYWYIHSEYEYWGQGTQVTVSS
- polyreactivity (PSR sort gate): high polyreactivity

Sequence: QVQLVESGGGLVQAGGSLRLSCAASGSIFYYNAMGWYIQAPGKERELVAAIRSTGSTNYADSVKGRFTISRDNAKNTVYLQMNSLKPEDTAVYYCNADYIFWLTLFDYWGQGTQVTVSS
- polyreactivity (PSR sort gate): low polyreactivity

Sequence: QVQLVESGGGLVQAGGSLRLSCAASGRTLPPNAMGWYRQAPGKERELVAGITWSGGSTYYADSVKGRFTISRDNAKNTVYLQMNSLKPEDTAVYYCAASRSFPGYGLYYYWGQGTQVTVSS
- polyreactivity (PSR sort gate): low polyreactivity

Sequence: QVQLVESGGGLVQAGGSLRLSCAASGRIFDYNSMGWSRPAPGKDRELVASITQRGDIPYYADSVKGRFTSSRDNAKNTVFLQMNSLNPDETAVYYGNADGVLVWVLPYVLYTGDYWGQGTQVTVSS
- polyreactivity (PSR sort gate): low polyreactivity

Sequence: QVQLVESGGGLVQAGGSLRLSCAASGRIFDYNAMGWYRQAPVKERELVATITTGGSTYYADSVKGRFTISRDNAKNTVYLQMYSLKPEDTAVYYCAARRWYFHYFAYGYWGQGTQVTVSS
- polyreactivity (PSR sort gate): low polyreactivity

Sequence: QVQLLESGGGLVQVGGSLRLSCAASGTIFIYGFLGWNRQAPGKERELVASINLGGITNYADSEKGRFTISRDNAINTGFLQMISLKPEDTAVYYCAAYVVTCQNYGYWGHGTQVTVSS
- polyreactivity (PSR sort gate): low polyreactivity

Sequence: QVQLVESGGGLVQAGVSLRLSCAASGFIFNIYAMGWYRQAPGKERELVAAISWRGGSTYYADSVKGRFTISRDNAKNTVYLQMNSLKPEYTAVYYCDVEDVWVGVFGDYDYWGEGTQVTVSS
- polyreactivity (PSR sort gate): low polyreactivity

Sequence: QVQLVESGGGLVQASGSLRLSCAASGFTFSQYDMGWNRQDHGKERELVAAISWNGGSTYYAESVKGRFTISRDNAKNTVYLQMNSLKPDDTAVYYCNRRWPFVRFYYWGQGTQVTVSS
- polyreactivity (PSR sort gate): high polyreactivity

Sequence: QVQLVESGGGLVQAGGRLRLSCAASGRIFWTYAMGWYRQAPGKERELVAAISSGGSTNYADSVKGRFTISRDNAKNTVYLQMNSLKPEDTAVYYCAADRWYREYDYWGQGTQVTVSS
- polyreactivity (PSR sort gate): low polyreactivity

Sequence: QVQLEESGGGLVQAGGSLRLSCAASGSTFYGYAMGWNRQAPGKERELVAAITRSGGSTYYADSVKGRFTISRDNAKNTVYLQMNSLKPEDTEVYYCNKYGYKGGVGYDYWGQGTQVTVSS
- polyreactivity (PSR sort gate): high polyreactivity

Sequence: QVQLVESGGGLVQAGGSLRLSCAASGITFSFYAMGWYRQAPGKERELVADITRGGNTNYADSVKGRFTISRDNAKNTVYLQMNSLKPEDTAVYYCNARRRGAGGYDYWGQGTQVTVSS
- polyreactivity (PSR sort gate): high polyreactivity

Sequence: QVQLVESGGGLVQAGGSLRLSCAASGNTLSFYTMGWYRQAPGKERELVAAISSDGTTYYADSVKGRFTISRDNAKNTVYLQMNSLKPEDTAVYYCAKAHYEWIWTRYDYWGQGTQVTVSS
- polyreactivity (PSR sort gate): low polyreactivity

Sequence: QVQLVESGGGLVQAGGSLRLSCAASGRIFYGNAMGWYRQAPGKERELVAAITRSGGSTYYADSVKGRFTISRDNAKNTVYLQMKSLKPEDTAVYYCAKYRPGIPYYQYGSWGQGNQVTVSS
- polyreactivity (PSR sort gate): high polyreactivity

Sequence: QVQLVESWGGLVQAGRSHRLSCAASGIIFDGNALGWYRQAPRKEREMVAAISSSGARTYYADSVKGRFTISRDNAKNSVYLLMNSLKPEDTAVYYCNAAYFNWYTHVWNDYWGQGTQVTVSS
- polyreactivity (PSR sort gate): high polyreactivity

Sequence: QVQLVESGGGLVQAGGSLRLSSAASGSNFWYYAMGWYRQSPGKERELVAAISAISGTTYYADSEKGRFTISRDNAKNTVYLQMNSLKPEDTAVYYCNKDASWWTDRSYDYWGQGTQVTVSS
- polyreactivity (PSR sort gate): low polyreactivity

Sequence: QVQLVESGGGLVQAGGSLRLSCAASGSIFYSNMGWYRPAPGKEREFVAAISGSGVRTYYADSVKGRFTISRDNAKKTVYLQMNSLKPEDTAVYYCNAGRRQDNRYNYWGQGTQVTVSS
- polyreactivity (PSR sort gate): high polyreactivity

Sequence: QVQLVESGGGLVQAGGSLRLSCAASGRIFVDNDMGWYRQAPGKERELVAAISGNGGNTNYADSVKGRFTISRDNAKNTVYFQMNSLKPEDTAVYYCAATYPVGHVYRYDYWGQGTQVTVSS
- polyreactivity (PSR sort gate): low polyreactivity

Sequence: QVQLVESGGGLVQAGGSLRLSCAASGSTFGSYAMGWYRQAPGKERELVAGISWSGGRTYYADSVKGRFTISRDNAKNTVYLQMNSLKPEDTAVYYRARDTGYYYARYNYWGQGTQVTVSS
- polyreactivity (PSR sort gate): low polyreactivity

Sequence: QVQLVESGGGLVQAGGSLRLSCAASGRILFGYAMGWYRQAPGKERELVADITSTGSTNYADSVKGRFTISRDNAKNTVYLQMNSLNPEDTAVYYCNARRESYYQRYRVDYWGQGTQVTVSS
- polyreactivity (PSR sort gate): low polyreactivity

Sequence: QVQLVESGGGLDQAGGSLRLSCAASGITFTSYAMGWYRQAPGTEREFVAAISWTDTSTYYADSVKGRFTISRDNAKNTVYLQMNSLKPEDTAVYYCADEYEVGYFGYEYWGQGTQVTVSS
- polyreactivity (PSR sort gate): high polyreactivity

Sequence: QVQLVESGGCLVQAGGSLRLSSAASGSTFRQYAMGWYRQAPGKERELVAAITWRGDNTYYADSVKGRFTISRDNAKNSVYLQMNSLKPEDTAVYYCAARWSYRLYWGYGYWGQGTQVTVSS
- polyreactivity (PSR sort gate): low polyreactivity

Sequence: PVQLVESGGGLVQAGGSLRLSCAGSGFTFYTNTMGWYIQAPGKERELVAAISSGGSTYADSVKVRYTISRDNAKNTVDLQMNSLKPEDTAVYYCARDFYYSLSGFDYWGQGTQVTVSS
- polyreactivity (PSR sort gate): low polyreactivity

Sequence: QVQLQESGGGLVQAGGSPRLSCAASDNIFPDSVMCWYRQAPGNERELVATIGFGATTNYADSVKGRFTISRDNAKNTVYLQMNSLKTEYTAVYYCAADPLNFDYFCYWGQGTQVTVSS
- polyreactivity (PSR sort gate): low polyreactivity

Sequence: QVLLVESGGGLVQAGGSLRLSCAASGITFGRNTMGWYRQAPGKDRELVAAIDSGGNTYADSVKGRFTISRDNAKNTVSLQMNSRKPEDTAVDYCAVDGGEFSSYGYWGQGTQVTVSS
- polyreactivity (PSR sort gate): low polyreactivity

Sequence: QVQLVESGGGLVQAGGSLRLSCAASGRISQNAMGWYRQAPGKERELVAAITFSGGSTYYADSVKGRFTISRDNAKNTVYFQMNSLKPEDTAVYYCNADWPAQWHYYDSKQDDYWGQGTQVTVSS
- polyreactivity (PSR sort gate): low polyreactivity

Sequence: QVQLVESGGGLVQAGGSLRLSCAASGILFGPYAKGWYRQAPGKERELVAVISGSGGSTNYADSVKGRFTISRDNGKYTVYLQMNSLKPEVTAVYYCAADSLSKVCYYYWGEGTQVTVSS
- polyreactivity (PSR sort gate): low polyreactivity

Sequence: QVQLVESGGGLVQAGGSLRLSCAASGYTFYYAMGWYRQAPGKERELVAAISAGGGRTYYADSVKGRFTISRDNAKNTVYLQMNSLKPEDTAVYYCNRVYRLTAYGYDYWGQGTQVTVSS
- polyreactivity (PSR sort gate): high polyreactivity

Sequence: QVQLVESGGGLVQAGGSLRLSCAASGITFPYYAMGWYRQAPGKERELVAAISSGGSTNYADSVKGRFTISRDNAKNTVYLQMNSLKPEDTAVYYCNADVRSYFYDYWGQGTQVTVSS
- polyreactivity (PSR sort gate): low polyreactivity

Sequence: QVQLVESGGGLVQAGGSLRLSCAASGSIFIYYAMGWYRQAPGKEREFVAAISYSDGDTYYADSVKGRFTISRDNAKNTVYLQMNSLKPEDTAVYYCAAEVPQYYDVGWEDHWGQGTQVTVSS
- polyreactivity (PSR sort gate): high polyreactivity

Sequence: QVQLVESGGGLVQAGGSLRLICAATGRNFRYYAMGWYRQAAGKERQLVAAIRNGGSTYYADSVKGRFTISRDNAKNTVYLQMNSLKPEDTAVYYCAGRYNYVSHRGGDWGHGTQVTVSS
- polyreactivity (PSR sort gate): high polyreactivity

Sequence: QVELVESGGGLVQAGGSLRLSCAASGSTFDYNAMGWYRQAPGKERELVAAISRTANANYADSVKGRFTISRDNAKNTVYLQMNSLKPEDTSVYYCAADFRASKVHVRFCYWGQGTQVTVSS
- polyreactivity (PSR sort gate): low polyreactivity

Sequence: QVQLVESGVGLVQAGGRLRLSCASSAIIFKIYAMGWYRQAPGKERELVADITSVGSTKYADSVKGRFTISRDNAKNTVYLQMNSLKPEDTAVYYCATDWVTSHDDDYWGQGTQVTVSS
- polyreactivity (PSR sort gate): low polyreactivity

Sequence: QVQLVESGVGIVQAGGSLRLSCAASGRIFDLYAMVWYRQAPGKEREFVAAISLSGGSTYYADSVKGRFTISRDNAKNTVYLQMNSLKPEDTAVYYCAADHTGKTYDYNYWGQGTQVTVSS
- polyreactivity (PSR sort gate): low polyreactivity

Sequence: QVQHGESGGGLVQAGGSLRLSCAASGTTLAAYTMGWYRQAPGKERELVAAINSGGGTNYADSVKGRFTISRDNAKNTVYLQMNSLKPEDTAVYYCAKVVFVRGAPGYYWGQGTQVTVSS
- polyreactivity (PSR sort gate): high polyreactivity
